Results as given in patent US20220041691A1, “METHODS FOR DIAGNOSING OR TREATING POST-TRAUMATIC STRESS DISORDER, AND COMPOSITIONS THEREFOR” (Centre for Addiction and Mental Health, priority 2018, published 2022).

B1: human glucocorticoid receptor (GR) (receptor)
chain: MDSKESLTPGREENPSSVLAQERGDVMDFYKTLRGGATVKVSASSPSLAVASQSDSKQRRLLVDFPKGSVSNAQQPDLSKAVSLSMGLYMGETETKVMGNDLGFPQQGQISLSSGETDLKLLEESIANLNRSTSVPENPKSSASTAVSAAPTEKEFPKTHSDVSSEQQHLKGQTGTNGGNVKLYTTDQSTFDILQDLEFSSGSPGKETNESPWRSDLLIDENCLLSPLAGEDDSFLLEGNSNEDCKPLILPDTKPKIKDNGDLVLSSPSNVTLPQVKTEKEDFIELCTPGVIKQEKLGTVYCQASFPGANIIGNKMSAISVHGVSTSGGQMYHYDMNTASLSQQQDQKPIFNVIPPIPVGSENWNRCQGSGDDNLTSLGTLNFPGRTVFSNGYSSPSMRPDVSSPPSSSSTATTGPPPKLCLVCSDEASGCHYGVLTCGSCKVFFKRAVEGQHNYLCAGRNDCIIDKIRRKNCPACRYRKCLQAGMNLEARKTKKKIKGIQQATTGVSQETSENPGNKTIVPATLPQLTPTLVSLLEVIEPEVLYAGYDSSVPDSTWRIMTTLNMLGGRQVIAAVKWAKAIPGFRNLHLDDQMTLLQYSWMFLMAFALGWRSYRQSSANLLCFAPDLIINEQRMTLPCMYDQCKHMLYVSSELHRLQVSYEEYLCMKTLLLLSSVPKDGLKSQELFDEIRMTYIKELGKAIVKREGNSSQNWQRFYQLTKLLDSMHEVVENLLNYCFQTFLDKTMSIEFPEMLAEIITNQIPKYSNGNIKKLLFHQK
notes: Endogenous protein in peripheral blood (lymphocyte) lysate of patients and controls
B2: human FK506 Binding Protein 51 (FKBP51) (other)
chain: MTTDEGAKNNEESPTATVAEQGEDITSKKDRGVLKIVKRVGNGEETPMIGDKVYVHYKGKLSNGKKFDSSHDRNEPFVFSLGKGQVIKAWDIGVATMKKGEICHLLCKPEYAYGSAGSLPKIPSNATLFFEIELLDFKGEDLFEDGGIIRRTKRKGEGYSNPNEGATVEIHLEGRCGGRMFDCRDVAFTVGEGEDHDIPIGIDKALEKMQREEQCILYLGPRYGFGEAGKPKFGIEPNAELIYEVTLKSFEKAKESWEMDTKEKLEQAAIVKEKGTVYFKGGKYMQAVIQYGKIVSWLEMEYGLSEKESKASESFLLAAFLNLAMCYLKLREYTKAVECCDKALGLDSANEKGLYRRGEAQLLMNEFESAKGDFEKVLEVNPQNKAARLQISMCQKKAKEHNERDRRIYANMFKKFAEQDAKEEANKAMGKKTSEGVTNEKGTDSQAMEEEKPEGHV
notes: as for B1

Legend:
[1] = biological target: B2; experiment: co-immunoprecipitation from human peripheral blood samples, densitometry, n=21
[2] = biological target: B2; experiment: co-immunoprecipitation from human peripheral blood samples, densitometry, n=22
[3] = biological target: B1; experiment: co-immunoprecipitation with anti-FKBP51 antibody from human peripheral blood protein, Western blot for GR

| GR-FKBP51 complex level, PTSD patients relative to trauma controls (Trauma = 1) [1] | GR-FKBP51 complex level, PTSD patients relative to healthy controls (CTRL = 1) [2] | binding result [3] | Binder |
| --- | --- | --- | --- |
| 1.46 fold of control | 1.41 fold of control |  | B1 |
|  |  | binds | B2 |
